The target in the test is SAMHD1 (T592A), constitutively active SAM domain and HD domain-containing protein 1 (UniProt Q9Y3Z3). As to the kind of experiment: cell-based or functional assay.
Chain of SAMHD1 (T592A), constitutively active SAM domain and HD domain-containing protein 1 (Q9Y3Z3 whole entry T592A, the tested form may be a part): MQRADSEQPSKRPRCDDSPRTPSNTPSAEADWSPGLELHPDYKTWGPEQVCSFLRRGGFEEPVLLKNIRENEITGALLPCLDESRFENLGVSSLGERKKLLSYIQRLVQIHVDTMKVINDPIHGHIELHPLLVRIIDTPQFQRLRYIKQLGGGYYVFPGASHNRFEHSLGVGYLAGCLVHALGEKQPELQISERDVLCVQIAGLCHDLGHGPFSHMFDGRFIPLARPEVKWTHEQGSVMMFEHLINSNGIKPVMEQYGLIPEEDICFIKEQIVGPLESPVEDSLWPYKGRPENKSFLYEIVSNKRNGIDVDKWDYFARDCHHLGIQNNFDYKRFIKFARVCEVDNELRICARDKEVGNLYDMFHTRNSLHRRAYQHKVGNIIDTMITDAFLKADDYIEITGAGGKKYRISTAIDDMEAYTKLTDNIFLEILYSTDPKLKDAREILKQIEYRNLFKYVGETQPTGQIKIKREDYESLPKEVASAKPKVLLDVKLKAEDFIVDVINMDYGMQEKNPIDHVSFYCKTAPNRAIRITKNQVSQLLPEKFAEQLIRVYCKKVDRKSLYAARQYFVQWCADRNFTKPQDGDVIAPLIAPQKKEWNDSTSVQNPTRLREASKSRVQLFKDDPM

In turn, “VPX^RH2-1 (variant of VPX from HIV-2 clinical isolate RH2-1) (from UniProt P20881 1-112)” returned an editing efficiency, RW2I, mutation 2-nt from the nick, SAMHD1 (T592A) coexpressed of 64%.
On to “VPX^ROD (Vpx from the ROD HIV-2 isolate) (from UniProt P06939 1-112)”, for which the editing efficiency, mutation 65-nt from the nick, relative to no SAMHD1^p- was 78%.

For the origin of these results see patent US20210292753A1.
